Assay results reported in the Human Domainome abundance scans (Beltran et al. 2025).
± gives the uncertainty stated by the source.

B1: E3 ubiquitin-protein ligase NEDD4-like, residues 539 to 589; numbered along this chain, Q96PU5 (parent)
chain: KTSLNPNDLGPLPPGWEERIHLDGRTFYIDHNSKITQWEDPRLQNPAITGP

Variants of: B1
Test: abundance fitness (aPCA) (normalised: wild type 0, dead -1); higher = more abundant; growth selection in yeast, the domain comes from the species named
Details: Homo sapiens

Abundance fitness of substitutions, site by site:
F27: G -0.197 ± 0.047 | E 0.175 ± 0.07 | T -0.089 ± 0.065 | K -0.002 ± 0.072 | P -0.357 ± 0.058 | L -0.039 ± 0.047 | V -0.188 ± 0.045 | I -0.163 ± 0.098 | W -0.346 ± 0.059 | D -0.27 ± 0.07 | N -0.201 ± 0.1 | C -0.056 ± 0.076 | A -0.112 ± 0.047 | R -0.163 ± 0.046 | S -0.092 ± 0.051 | Q 0.042 ± 0.084
I20: Q -0.148 ± 0.11 | A -0.069 ± 0.048 | N -0.467 ± 0.12 | E 0.022 ± 0.089 | L -0.024 ± 0.062 | F -0.246 ± 0.092 | C 0.192 ± 0.096 | G -0.289 ± 0.052 | M -0.131 ± 0.076 | Y -0.164 ± 0.051 | S 0.047 ± 0.064 | R -0.006 ± 0.065 | H -0.125 ± 0.11 | P -0.226 ± 0.1 | V 0.093 ± 0.048 | W -0.228 ± 0.08 | K 0.209 ± 0.075
L12: N -0.534 ± 0.11 | W -0.72 ± 0.053 | M -0.121 ± 0.05 | R -0.864 ± 0.057 | Y -0.788 ± 0.14 | H -0.863 ± 0.17 | P -0.62 ± 0.12 | E -0.563 ± 0.089 | D -0.736 ± 0.14 | T -0.427 ± 0.072 | S -0.695 ± 0.063 | V -0.568 ± 0.048 | A -0.627 ± 0.044 | F -0.088 ± 0.071 | C -0.824 ± 0.12 | G -1.2 ± 0.044 | Q -0.773 ± 0.1 | I -0.488 ± 0.097
G24: K -0.53 ± 0.05 | E -0.719 ± 0.072 | C -0.917 ± 0.095 | F -1.35 ± 0.22 | M -1.08 ± 0.18 | S -0.531 ± 0.052 | N -0.639 ± 0.12 | V -1.03 ± 0.065 | R -0.56 ± 0.057 | P -1.14 ± 0.12 | W -1.07 ± 0.077 | L -0.938 ± 0.077 | A -0.608 ± 0.064 | Q -0.705 ± 0.13 | Y -0.76 ± 0.18 | I -1.12 ± 0.24
P14: I -0.227 ± 0.066 | L -0.204 ± 0.046 | H -0.159 ± 0.067 | V -0.122 ± 0.056 | M -0.256 ± 0.076 | N -0.355 ± 0.12 | D 0.023 ± 0.084 | Y -0.066 ± 0.098 | W -0.433 ± 0.1 | T -0.118 ± 0.068 | S -0.042 ± 0.054 | C -0.1 ± 0.068 | F -0.066 ± 0.091 | G -0.205 ± 0.067 | K -0.044 ± 0.044 | E 0.009 ± 0.048 | R -0.085 ± 0.049 | A 0.008 ± 0.066 | Q -0.17 ± 0.11
E18: W -0.962 ± 0.1 | I -0.796 ± 0.16 | Q 0 ± 0.093 | K -0.274 ± 0.089 | C -0.252 ± 0.053 | R -0.159 ± 0.061 | L -0.802 ± 0.087 | T -0.27 ± 0.049 | P -0.48 ± 0.048 | F -0.736 ± 0.14 | A -0.071 ± 0.042 | H -0.68 ± 0.17 | Y -0.417 ± 0.12 | V -0.322 ± 0.053 | M -0.444 ± 0.094 | G -0.503 ± 0.06
D23: T -0.031 ± 0.073 | F -1.12 ± 0.16 | H -0.593 ± 0.062 | R -0.645 ± 0.059 | S -0.036 ± 0.06 | G -0.388 ± 0.056 | I -0.725 ± 0.067 | Y -0.715 ± 0.054 | K -0.333 ± 0.088 | P -0.445 ± 0.069 | E -0.584 ± 0.085 | M -0.5 ± 0.056 | Q -0.252 ± 0.089 | A -0.779 ± 0.079 | L -0.548 ± 0.068 | C -0.135 ± 0.057 | V -0.876 ± 0.055 | N -0.064 ± 0.065
Y28: G -0.451 ± 0.043 | Q -0.424 ± 0.088 | N -0.851 ± 0.067 | K -0.332 ± 0.089 | D -0.399 ± 0.058 | F -0.347 ± 0.11 | W -0.008 ± 0.063 | V -0.696 ± 0.054 | S -0.399 ± 0.046 | I -0.273 ± 0.1 | T -0.626 ± 0.075 | L -0.703 ± 0.066 | C -0.902 ± 0.13 | H -0.636 ± 0.11 | R -0.536 ± 0.061 | M -0.991 ± 0.12 | P -0.242 ± 0.065
E17: N -0.61 ± 0.056 | A -0.705 ± 0.051 | D -0.606 ± 0.064 | C -0.457 ± 0.047 | K -0.571 ± 0.051 | V -0.477 ± 0.065 | F -0.753 ± 0.14 | I -0.432 ± 0.11 | P -0.877 ± 0.19 | M -0.821 ± 0.08 | R -0.746 ± 0.046 | T -0.628 ± 0.069 | H -0.157 ± 0.12 | S -0.246 ± 0.055 | Q -0.361 ± 0.1 | L -0.856 ± 0.07 | Y -0.986 ± 0.14
R25: V -0.54 ± 0.045 | Y -0.569 ± 0.047 | C -0.393 ± 0.042 | D -0.287 ± 0.064 | P -0.558 ± 0.049 | H -0.382 ± 0.047 | F -0.568 ± 0.044 | A -0.301 ± 0.047 | T -0.068 ± 0.043 | M -0.48 ± 0.048 | G -0.265 ± 0.046 | E -0.198 ± 0.052 | Q -0.187 ± 0.063 | S -0.063 ± 0.04 | W -0.72 ± 0.064 | L -0.598 ± 0.046 | N -0.164 ± 0.043 | I -0.757 ± 0.043
G10: S -0.268 ± 0.059 | T -0.15 ± 0.074 | R -0.263 ± 0.056 | Q -0.276 ± 0.049 | V -0.181 ± 0.045 | Y -0.571 ± 0.12 | W -0.433 ± 0.048
I29: R -0.271 ± 0.046 | L -0.175 ± 0.059 | G -0.482 ± 0.042 | H -0.782 ± 0.17 | E -0.105 ± 0.055 | K -0.027 ± 0.065 | T -0.166 ± 0.059 | A -0.299 ± 0.065 | V 0.013 ± 0.051 | S -0.318 ± 0.056 | C -0.124 ± 0.075 | Y -0.017 ± 0.098 | W -0.332 ± 0.059 | Q -0.176 ± 0.051 | M -0.141 ± 0.075 | N -0.378 ± 0.11 | D -0.422 ± 0.082
L22: S 0.154 ± 0.054 | C -0.219 ± 0.088 | M 0.013 ± 0.047 | I -0.107 ± 0.087 | F -0.23 ± 0.11 | G 0.085 ± 0.043 | V 0.089 ± 0.043 | D 0.048 ± 0.071 | N -0.247 ± 0.12 | W -0.167 ± 0.069 | A 0.156 ± 0.049 | R 0.052 ± 0.043 | K 0.206 ± 0.044 | P 0.246 ± 0.052 | Y 0.07 ± 0.1 | T 0.141 ± 0.084 | Q 0.152 ± 0.064
G15: T -0.526 ± 0.065 | P -0.471 ± 0.05 | K -0.447 ± 0.077 | R -0.498 ± 0.064 | L -0.622 ± 0.062 | A -0.361 ± 0.048 | M -0.406 ± 0.051 | S -0.394 ± 0.042 | H -0.407 ± 0.18 | N -0.018 ± 0.084 | C -0.442 ± 0.056 | Q -0.321 ± 0.057 | Y -0.53 ± 0.13 | E -0.425 ± 0.079 | I -0.429 ± 0.13 | F -0.491 ± 0.098 | D -0.471 ± 0.086
P11: L -0.41 ± 0.063 | I -0.322 ± 0.061 | M -0.232 ± 0.057 | D -0.025 ± 0.083 | N -0.177 ± 0.098 | G -0.19 ± 0.055 | C -0.178 ± 0.056 | T -0.127 ± 0.074 | W -0.613 ± 0.082 | V -0.221 ± 0.044 | H -0.586 ± 0.12 | E -0.044 ± 0.067 | R -0.168 ± 0.045 | A 0.022 ± 0.061 | F -0.426 ± 0.059 | Y -0.601 ± 0.18
H21: Y -0.151 ± 0.069 | T 0.087 ± 0.072 | K -0.178 ± 0.097 | W -0.051 ± 0.077 | P -0.693 ± 0.14 | E -0.052 ± 0.057 | R -0.149 ± 0.064 | M -0.124 ± 0.086 | N -0.244 ± 0.11 | I -0.478 ± 0.12 | F -0.439 ± 0.11 | S 0.221 ± 0.053 | A 0.102 ± 0.062 | D 0.101 ± 0.053 | L -0.289 ± 0.064 | G 0.166 ± 0.046 | C 0.057 ± 0.048 | V -0.296 ± 0.046
P13: H -1.04 ± 0.19 | L -0.745 ± 0.056 | V -1.1 ± 0.082 | C -0.766 ± 0.07 | D -0.322 ± 0.095 | Y -0.023 ± 0.1 | F -0.616 ± 0.063 | Q -0.585 ± 0.097 | M -0.799 ± 0.058 | N -0.437 ± 0.12 | A -0.495 ± 0.066 | E -0.506 ± 0.053 | R -0.698 ± 0.05 | K -0.559 ± 0.085 | I -0.933 ± 0.14 | S -0.605 ± 0.058 | T -1 ± 0.12
W16: L -0.509 ± 0.043 | I -0.684 ± 0.1 | T -0.565 ± 0.075 | E -0.393 ± 0.081 | D -0.353 ± 0.065 | G -0.223 ± 0.053 | P -0.385 ± 0.081 | S -0.471 ± 0.065 | Q -0.388 ± 0.088 | N -0.222 ± 0.1 | R -0.408 ± 0.042 | K -0.29 ± 0.1 | H -0.386 ± 0.059 | C -0.502 ± 0.086 | A -0.342 ± 0.045 | Y -0.41 ± 0.098 | M -0.46 ± 0.082
R19: I -0.181 ± 0.072 | F -0.28 ± 0.088 | S -0.132 ± 0.066 | N -0.368 ± 0.13 | C -0.138 ± 0.047 | E -0.192 ± 0.069 | V -0.155 ± 0.053 | G -0.175 ± 0.047 | Y -0.216 ± 0.08 | K -0.198 ± 0.098 | D -0.421 ± 0.078 | Q -0.361 ± 0.12 | H -0.423 ± 0.093 | T -0.342 ± 0.063 | A -0.283 ± 0.062 | M -0.233 ± 0.081 | P -0.969 ± 0.15 | L -0.354 ± 0.055
T26: R -0.011 ± 0.045 | V -0.077 ± 0.046 | L -0.136 ± 0.05 | C -0.065 ± 0.085 | F -0.287 ± 0.08 | I -0.131 ± 0.098 | S -0.113 ± 0.054 | W -0.645 ± 0.065 | Q -0.284 ± 0.056 | K 0.056 ± 0.052 | Y -0.105 ± 0.094 | A -0.065 ± 0.045 | P -0.051 ± 0.073 | D -0.635 ± 0.067 | N -0.187 ± 0.075 | H 0.084 ± 0.079 | E -0.403 ± 0.051 | M -0.125 ± 0.065
